Consider 40 molecules from patent publication US20250276077A1 (IMMUNOME, published 2025).

Numbering of substitutions follows the chain as printed.

Sequences and labels used below:
B1: AB-010693 (antibody, V domains shown)
VH: QVQLQQWGAGLLKPSETLSLTCAVYGGSFSGYYWSWIRQPPGKGLEWIGEINHRGSINYNNYNPSLKSRVTISVDTSKNQFSLKLSSVTAADTAVYYCAKPLRPHCINGVCYSGDAFDIWGQGTMVTVAS
VL: SYVLTQPPSVSVAPGQTARITCGGNNIGYKNVHWYQQKPGQAPVLVVYDDSDRPSGIPERFSGSNSGNTATLTISRVEAGDEADYYCQVWDSSSDHVVFGGGTKLTVL
B2: AB-010666 (antibody, V domains shown)
VH: B1 VH with G31D, I107T
VL: B1 VL with K30M, R60Q
B3: AB-010690 (antibody, V domains shown)
VH: B1 VH with I107T
VL: B1 VL with G23R
B4: AB-010686 (antibody, V domains shown)
VH: B1 VH with I107T
VL: B1 VL with Y29S, R60Q, S93R
B5: AB-010696 (antibody, V domains shown)
VH: B1 VH
VL: B1 VL with Y29S, K30M
B6: AB-010684 (antibody, V domains shown)
VH: B1 VH
VL: B1 VL with Y29S, R60Q, S92H
B7: AB-010687 (antibody, V domains shown)
VH: B1 VH with I107T
VL: B1 VL with Y29S, R60Q, S93E
B8: AB-010670 (antibody, V domains shown)
VH: B1 VH with G31D
VL: B1 VL with Y29S, R60Q, S92H
B9: AB-010682 (antibody, V domains shown)
VH: B1 VH
VL: B1 VL with Y29S, K30M, R60Q
B10: AB-010702 (antibody, V domains shown)
VH: B1 VH with I107T
VL: B1 VL with S93E
B11: AB-010671 (antibody, V domains shown)
VH: B1 VH with G31D
VL: B1 VL with R60Q, S92H
B12: AB-010680 (antibody, V domains shown)
VH: B1 VH with I107T
VL: B1 VL with K30M, R60Q
B13: AB-010667 (antibody, V domains shown)
VH: B1 VH with G31D, I107T
VL: B1 VL with R60Q, S92H
B14: AB-010664 (antibody, V domains shown)
VH: B1 VH with G31D, I107T
VL: B1 VL with G23R, Y29S, R60Q, S92H
B15: AB-010694 (antibody, V domains shown)
VH: B1 VH with I107T
VL: B1 VL with K30M
B16: AB-010678 (antibody, V domains shown)
VH: B1 VH with I107T
VL: B1 VL with G23R, Y29S, R60Q, S92H
B17: AB-010669 (antibody, V domains shown)
VH: B1 VH with G31D, I107T
VL: B1 VL with Y29S, K30M, R60Q, S92H
B18: AB-010701 (antibody, V domains shown)
VH: B1 VH with I107T
VL: B1 VL with Y29S, S93E
B19: AB-010698 (antibody, V domains shown)
VH: B1 VH
VL: B1 VL with Y29S, S92H
B20: AB-010675 (antibody, V domains shown)
VH: B1 VH
VL: B1 VL with G23R, Y29S, R60Q
B21: AB-010676 (antibody, V domains shown)
VH: B1 VH with I107T
VL: B1 VL with G23R, R60Q
B22: AB-010689 (antibody, V domains shown)
VH: B1 VH
VL: B1 VL with G23R, Y29S
B23: AB-010668 (antibody, V domains shown)
VH: B1 VH with G31D
VL: B1 VL with Y29S, K30M, R60Q
B24: AB-010683 (antibody, V domains shown)
VH: B1 VH with I107T
VL: B1 VL with Y29S, K30M, R60Q, S92H
B25: AB-010688 (antibody, V domains shown)
VH: B1 VH with I107T
VL: B1 VL with R60Q, S93E
B26: AB-010695 (antibody, V domains shown)
VH: B1 VH with I107T
VL: B1 VL with S92H
B27: AB-010677 (antibody, V domains shown)
VH: B1 VH with I107T
VL: B1 VL with G23R, Y29S, K30M, R60Q
B28: AB-010673 (antibody, V domains shown)
VH: B1 VH with G31D, I107T
VL: B1 VL with Y29S, R60Q, S93E
B29: AB-010685 (antibody, V domains shown)
VH: B1 VH
VL: B1 VL with R60Q, S92H
B30: AB-010665 (antibody, V domains shown)
VH: B1 VH with G31D
VL: B1 VL with R60Q
B31: AB-010700 (antibody, V domains shown)
VH: B1 VH with I107T
VL: B1 VL with Y29S, S93R
B32: AB-010661 (antibody, V domains shown)
VH: B1 VH with G31D
VL: B1 VL with G23R, Y29S, R60Q
B33: AB-010681 (antibody, V domains shown)
VH: B1 VH with I107T
VL: B1 VL with R60Q, S92H
B34: AB-010679 (antibody, V domains shown)
VH: B1 VH
VL: B1 VL with R60Q
B35: AB-010662 (antibody, V domains shown)
VH: B1 VH with G31D, I107T
VL: B1 VL with G23R, R60Q
B36: AB-010674 (antibody, V domains shown)
VH: B1 VH with G31D, I107T
VL: B1 VL with R60Q, S93E
B37: AB-010697 (antibody, V domains shown)
VH: B1 VH with I107T
VL: B1 VL with Y29S, K30M, S92H
B38: AB-010663 (antibody, V domains shown)
VH: B1 VH with G31D, I107T
VL: B1 VL with G23R, Y29S, K30M, R60Q
B39: AB-010672 (antibody, V domains shown)
VH: B1 VH with G31D, I107T
VL: B1 VL with Y29S, R60Q, S93R
B40: AB-010691 (antibody, V domains shown)
VH: B1 VH with I107T
VL: B1 VL with G23R, Y29S, K30M

Human EphA2 (ephrin receptor A2) on cells, sequence (P29317 25-976): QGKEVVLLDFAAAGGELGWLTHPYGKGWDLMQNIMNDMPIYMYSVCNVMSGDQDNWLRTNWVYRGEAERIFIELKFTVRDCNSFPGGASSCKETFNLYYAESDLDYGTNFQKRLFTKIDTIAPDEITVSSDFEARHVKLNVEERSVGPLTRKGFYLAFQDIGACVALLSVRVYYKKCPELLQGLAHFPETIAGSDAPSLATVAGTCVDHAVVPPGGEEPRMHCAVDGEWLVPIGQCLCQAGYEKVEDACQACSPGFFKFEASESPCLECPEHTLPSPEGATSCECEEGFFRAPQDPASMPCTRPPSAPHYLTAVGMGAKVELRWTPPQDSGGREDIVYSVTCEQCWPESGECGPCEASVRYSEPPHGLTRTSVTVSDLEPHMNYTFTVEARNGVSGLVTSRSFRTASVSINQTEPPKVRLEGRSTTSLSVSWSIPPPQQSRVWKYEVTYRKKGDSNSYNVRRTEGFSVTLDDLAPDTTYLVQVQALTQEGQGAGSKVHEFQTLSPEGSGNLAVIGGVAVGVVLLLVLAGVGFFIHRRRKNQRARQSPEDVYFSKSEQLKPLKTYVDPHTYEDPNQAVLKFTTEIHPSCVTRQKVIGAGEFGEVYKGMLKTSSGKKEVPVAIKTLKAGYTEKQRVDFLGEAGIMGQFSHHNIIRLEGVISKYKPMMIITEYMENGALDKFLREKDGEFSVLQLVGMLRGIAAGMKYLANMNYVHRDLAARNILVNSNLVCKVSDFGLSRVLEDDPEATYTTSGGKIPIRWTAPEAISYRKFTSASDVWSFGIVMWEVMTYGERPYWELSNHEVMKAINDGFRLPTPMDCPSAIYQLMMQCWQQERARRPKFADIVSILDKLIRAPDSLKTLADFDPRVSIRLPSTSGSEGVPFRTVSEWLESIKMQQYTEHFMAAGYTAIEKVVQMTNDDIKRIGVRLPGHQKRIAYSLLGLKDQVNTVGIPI

This assay addresses Human EphA2 (ephrin receptor A2) on cells (human, UniProt P29317 25-976). The experiment in a line: cell-based or functional assay.
Turning to B1, the “ADCC - EC50 (nM), Trial 1, A549” value came to 0.15 nM.

For the molecule B2, the “ADCC - EC50 (nM), Trial 1, A549” value was about 0.19 nM and the “ADCC - EC50 (nM), Trial 2, A549” value came out at 0.16 nM.

As for B3, the “ADCC - EC50 (nM), Trial 1, A549” value is 0.19 nM.

For B4, the “ADCC - EC50 (nM), Trial 1, A549” value is 6.4 nM.

For the molecule B5, the “ADCC - EC50 (nM), Trial 1, A549” value is 1.9 nM.

Turning to B6, the “ADCC - EC50 (nM), Trial 1, A549” value was about 0.14 nM and the “ADCC - EC50 (nM), Trial 2, A549” value amounted to 0.048 nM.

Regarding B7, the “ADCC - EC50 (nM), Trial 1, A549” value came to 2.8 nM.

In the case of B8, the “ADCC - EC50 (nM), Trial 1, A549” value came out at 0.36 nM.

B9: the “ADCC - EC50 (nM), Trial 1, A549” value was 3.2 nM.

As to B10, the “ADCC - EC50 (nM), Trial 1, A549” value worked out at 0.065 nM.

For the molecule B11, the “ADCC - EC50 (nM), Trial 1, A549” value is under 0.03 nM and the “ADCC - EC50 (nM), Trial 2, A549” value came out at 0.0064 nM.

B12: the “ADCC - EC50 (nM), Trial 1, A549” value was about 0.081 nM and the “ADCC - EC50 (nM), Trial 2, A549” value came out at 0.031 nM.

Regarding B13, the “ADCC - EC50 (nM), Trial 1, A549” value was under 0.03 nM and the “ADCC - EC50 (nM), Trial 2, A549” value was determined as 0.012 nM.

For the molecule B14, the “ADCC - EC50 (nM), Trial 1, A549” value worked out at 0.54 nM.

In the case of B15, the “ADCC - EC50 (nM), Trial 1, A549” value came out at 0.14 nM.

Take B16: the “ADCC - EC50 (nM), Trial 1, A549” value is about 0.14 nM and the “ADCC - EC50 (nM), Trial 2, A549” value worked out at 0.047 nM.

As to B17, the “ADCC - EC50 (nM), Trial 1, A549” value was determined as 0.44 nM.

As for B18, the “ADCC - EC50 (nM), Trial 1, A549” value is 3 nM.

Consider B19, for which the “ADCC - EC50 (nM), Trial 1, A549” value stood at 0.23 nM.

In the case of B20, the “ADCC - EC50 (nM), Trial 1, A549” value is 1.5 nM.

Regarding B21, the “ADCC - EC50 (nM), Trial 1, A549” value is about 0.1 nM and the “ADCC - EC50 (nM), Trial 2, A549” value worked out at 0.039 nM.

For the molecule B22, the “ADCC - EC50 (nM), Trial 1, A549” value came out at 2.5 nM.

On to B23, for which the “ADCC - EC50 (nM), Trial 1, A549” value stood at 3.7 nM.

For the molecule B24, the “ADCC - EC50 (nM), Trial 1, A549” value was about 0.14 nM and the “ADCC - EC50 (nM), Trial 2, A549” value stood at 0.046 nM.

Consider B25, for which the “ADCC - EC50 (nM), Trial 1, A549” value was about 0.052 nM and the “ADCC - EC50 (nM), Trial 2, A549” value came out at 0.032 nM.

For the molecule B26, the “ADCC - EC50 (nM), Trial 1, A549” value was about 0.021 nM and the “ADCC - EC50 (nM), Trial 2, A549” value turned out to be 0.0096 nM.

For the molecule B27, the “ADCC - EC50 (nM), Trial 1, A549” value turned out to be 1.6 nM.

B28: the “ADCC - EC50 (nM), Trial 1, A549” value was 3.9 nM.

Take B29: the “ADCC - EC50 (nM), Trial 1, A549” value was under 0.03 nM and the “ADCC - EC50 (nM), Trial 2, A549” value was determined as 0.0057 nM.

For the molecule B30, the “ADCC - EC50 (nM), Trial 1, A549” value was about 0.23 nM and the “ADCC - EC50 (nM), Trial 2, A549” value was 0.14 nM.

For B31, the “ADCC - EC50 (nM), Trial 1, A549” value is 9.5 nM.

Consider B32, for which the “ADCC - EC50 (nM), Trial 1, A549” value turned out to be 5.7 nM.

B33: the “ADCC - EC50 (nM), Trial 1, A549” value was under 0.03 nM and the “ADCC - EC50 (nM), Trial 2, A549” value is 0.0079 nM.

Consider B34, for which the “ADCC - EC50 (nM), Trial 1, A549” value is about 0.15 nM and the “ADCC - EC50 (nM), Trial 2, A549” value was 0.04 nM.

Consider B35, for which the “ADCC - EC50 (nM), Trial 1, A549” value is 0.57 nM.

Take B36: the “ADCC - EC50 (nM), Trial 1, A549” value was about 0.13 nM and the “ADCC - EC50 (nM), Trial 2, A549” value worked out at 0.1 nM.

In the case of B37, the “ADCC - EC50 (nM), Trial 1, A549” value turned out to be 0.3 nM.

For B38, the “ADCC - EC50 (nM), Trial 1, A549” value is 4.7 nM.

On to B39, for which the “ADCC - EC50 (nM), Trial 1, A549” value was determined as 12.4 nM.

Consider B40, for which the “ADCC - EC50 (nM), Trial 1, A549” value came to 2.2 nM.
